Test results taken from publication PMC9503459, “Antifungal Activity, Structural Stability, and Immunomodulatory Effects on Human Immune Cells of Defensin from the Lentil Lens culinaris” (Membranes, 2022).
No end group written: not given here.

What was measured:
[1] = test system: pepsin, trypsin, α-chymotrypsin; assay: Simulated gastrointestinal digestion in vitro; type: in vitro ADME, porcine pepsin and trypsin, bovine α-chymotrypsin
From the text: Digestive enzymes (porcine pepsin and trypsin, bovine α-chymotrypsin), model protein substrate bovine α-casein, and secondary anti-rabbit IgG polyclonal goat antibodies conjugated to HRP and 3,3′,5,5′-tetramethylbenzidine (TMB) substrates were purchased from Sigma-Aldrich (St. Louis, MO, USA). Synthetic lysophospholipids (lyso-palmitoyl phosphatidylcholine (LPPC), lyso-palmitoyl phosphatidylglycerol (LPPG)) were purchased from Avanti Polar Lipids (Alabaster, AL, USA).
Sensitivity of Lc-def to digestive enzymes was examined by simulation of its gastrointestinal digestion in vitro. Gastric digestion was performed for 2 h, using 50 ng of pepsin per 1 μg of preheated at 100 °C for 30 min and intact Lc-def in 0.1 M HCl, pH 2.0. For duodenal digestion, the pH of the mixture resulting from gastric digestion was adjusted to 8.0 by addition of ammonium bicarbonate. The obtained mixture was incubated for 24 h at 37 °C with 2.5 ng of trypsin and 10 ng of α-chymotrypsin per 1 μg of the defensin. The degree of proteolysis was monitored by SDS-PAGE and RP-HPLC. Gel analysis was performed using Gel Doc XR^+ imaging system (Bio-Rad, Hercules, CA, USA) and Image Lab Software v.6.1.0 (Bio-Rad, Hercules, CA, USA). Some independent experiments were performed in each case. The experiment with α-casein was carried out for comparison.

[2] = CD spectroscopy, secondary structure at different pH and temperature; type: physicochemical
Protocol: Circular dichroism spectra were recorded at different temperatures using a J-810 spectropolarimeter (Jasco, Hachioji, Tokyo, Japan) in a 0.1 cm path length quartz cell (Hellma GmbH and Co. KG, Mullheim, Germany) in the 190–250 nm range 0.2 using solutions of Lc-def in 10 mM phosphate buffer, pH 7.4, or 150 mM sodium chloride, pH 2.5, simulated gastric fluid, at a concentration of 30 µM. Lysolipids were added at final concentration of 1 mM.

[3] = test system: Gram-positive or Gram-negative bacteria; settings: cited from earlier work
[4] = far-UV CD, 30 µM, 10 mM phosphate buffer pH 7.4
[5] = far-UV CD, 30 µM, 150 mM sodium chloride pH 2.5, simulated gastric fluid
[6] = pH 7.4, 20 °C end (after heating and cooling)

Substance: Lc-def: defensin from lentil Lens culinaris seeds (UniProt:B3F051), recombinant, overexpressed in Escherichia coli (KTCENLSDSFKGPCIPDGNCNKHCKEKEHLLSGRCRDDFRCWCTRNC; disulfide (positions not given here); ends not checked; also: disulfide bonds present, pairing not given here; UniProt B3F051 28-74, looked up)
- degradation after gastrointestinal digestion [1]: approximately 30%
- Random, % ([2]; +LPPC 1 mM, pH 7.4, 20 °C): 31%
- α-Helix, % ([2]; +LPPC 1 mM, pH 7.4, 20 °C): 16.4%
- β-Sheet, % ([2]; +LPPC 1 mM, pH 7.4, 20 °C): 30.3%
- β-Turn, % ([2]; +LPPC 1 mM, pH 7.4, 20 °C): 22.3%
- Random, % ([2]; +LPPC 1 mM, pH 7.4, 20 °C end): 32.8%
- α-Helix, % ([2]; +LPPC 1 mM, pH 7.4, 20 °C end): 5.8%
- β-Sheet, % ([2]; +LPPC 1 mM, pH 7.4, 20 °C end): 39.9%
- β-Turn, % ([2]; +LPPC 1 mM, pH 7.4, 20 °C end): 21.5%
- Random, % ([2]; +LPPC 1 mM, pH 7.4, 98 °C): 33.7%
- α-Helix, % ([2]; +LPPC 1 mM, pH 7.4, 98 °C): 8.1%
- β-Sheet, % ([2]; +LPPC 1 mM, pH 7.4, 98 °C): 35.7%
- β-Turn, % ([2]; +LPPC 1 mM, pH 7.4, 98 °C): 22.5%
- Random, % ([2]; +LPPG 1 mM, pH 7.4, 20 °C): 33%
- α-Helix, % ([2]; +LPPG 1 mM, pH 7.4, 20 °C): 23.6%
- β-Sheet, % ([2]; +LPPG 1 mM, pH 7.4, 20 °C): 21%
- β-Turn, % ([2]; +LPPG 1 mM, pH 7.4, 20 °C): 22.4%
- Random, % ([2]; +LPPG 1 mM, pH 7.4, 20 °C end): 32.9%
- α-Helix, % ([2]; +LPPG 1 mM, pH 7.4, 20 °C end): 21.7%
- β-Sheet, % ([2]; +LPPG 1 mM, pH 7.4, 20 °C end): 23.1%
- β-Turn, % ([2]; +LPPG 1 mM, pH 7.4, 20 °C end): 22.2%
- Random, % ([2]; +LPPG 1 mM, pH 7.4, 98 °C): 35%
- α-Helix, % ([2]; +LPPG 1 mM, pH 7.4, 98 °C): 18.5%
- β-Sheet, % ([2]; +LPPG 1 mM, pH 7.4, 98 °C): 24.1%
- β-Turn, % ([2]; +LPPG 1 mM, pH 7.4, 98 °C): 22.4%
- Random, % [2, 4]: 33.9%
- α-Helix, % [2, 4]: 15.5%
- β-Sheet, % [2, 4]: 28.5%
- β-Turn, % [2, 4]: 22.2%
- Random, % [2, 5]: 35.8%
- α-Helix, % [2, 5]: 13.9%
- β-Sheet, % [2, 5]: 25.4%
- β-Turn, % [2, 5]: 24.8%
- Random, % ([2]; pH 7.4, 20 °C (before heating)): 34%
- α-Helix, % ([2]; pH 7.4, 20 °C (before heating)): 15.9%
- β-Sheet, % ([2]; pH 7.4, 20 °C (before heating)): 27.7%
- β-Turn, % ([2]; pH 7.4, 20 °C (before heating)): 22.3%
- Random, % [2, 6]: 35.9%
- α-Helix, % [2, 6]: 9%
- β-Sheet, % [2, 6]: 32.1%
- β-Turn, % [2, 6]: 22.9%
- Random, % ([2]; pH 7.4, 98 °C): 35.3%
- α-Helix, % ([2]; pH 7.4, 98 °C): 13.3%
- β-Sheet, % ([2]; pH 7.4, 98 °C): 29.6%
- β-Turn, % ([2]; pH 7.4, 98 °C): 21.8%
- effect on growth of bacteria [3]: did not affect the growth
